# Assay: soluble on expression in E. coli; label from the status in PepcDB or PDB records
row,Sequence,soluble on expression in E. coli
1,GMNNSLAFNHDTLPQKVMFGYGKSSAFLKQEVERRGSAKVMVIAGEREMSIAHKVASEIEVAIWHDEVVMHVPIEVAERARAVATDNEIDLLVCVGGGSTIGLAKAIAMTTALPIVAIPTTYAGSEATNVWGLTEAARKTTGVDLKVLPETVIYDSELTMSLPVEMSVASGLNGLAHCIDSLWGPNADPINAVLAAEGIRALNQGLPKIVANPHSIEGRDEALYGAYLAAVSFASAGSGLHHKICHTLGGTFNLPHAQTHATVLPYVLAFNAGDAPEAERRAAAAFGTDTALEGLQRLRLSVNAPKRLSDYGFEASGIAEAVDVTLEKVPANNPRPVTRENLSRLLEAALNGEDPAVLSAVLSN,soluble
2,MRLFHELLGPLELPDRFSRIVSLAPNLTDALFALGLGERLVGRSAFCHRPAPVLALPVVASYTKTRLELLRSLKPDLVLLSTGVQREQALRLKEEGFPVYAVPLPTSPYGILENLSTLGHLLDLEERAVALAHELSGRYAALRGRFDLRVYFEMDLGGPITVGRGSYIAQALLHMGLKPIFLDVPQAYFAPDLEEVRRRAPDLFLYEPKPWGKNPLEKARALARERGWDFPVAATDGDELAHYGPMFFGFLEKLARRVEETLGQA,soluble
3,MEAESLADSGFPLEVFPQKMQSIIIDMVVHGNFKVDYVAMSMLSAASAALGNTYRIHVKQDWDTNAALYIILVGRPGMGKTPPLQLAYKPIREYERKLFDKFCHELDLYEAACATKESGSKEMKKPILKRVTLDDFTLEALVLEHYNNLRGIAINYDEILGLLANTDRYGKNPMLERLLSIWSGCHLENTRVKNDRPQRVEEPCVNIIGTTQTKRMKELMASKFMDTGFLDRILVVYPKSKKVPHWLDEEDSHVRQSEASRKWADIIGKIFGLDYARCNDTNECCPNILYMDKDAHSLFFGWWNRNVDAINAIEDDEDVETRVMKHNTHVARIALLLQALRYACGESHLQSIDVDSIEGALRLNEYCENCYQRCRAFVAEDTCDSMSKELLYLLEDSFDTKTAIKTGMENLHVTDRTVMNYIKELMKSGLITKAKKGFYEKVKFETGQATET,not soluble
4,MVVSMRWLLSVFTFLCMKYSEASNPRAIILQNFMDSNKEAVKNLKDDNVLSKALVKTFGLNSSSSSSLSDESSSNLVLMDSTTPCDSGWTKSTVNGMCYKIATADTTWYAAEDWCYSQRYGSHLTSVHSEAEAQWIAATYVSTGWFPYMDNWLGLRRSCDNSTYIWTDGTPVDYLWWQPGYPGSGDPEKSCVTIWVTSLLKLNPGYVQGQFDDIWDCGTNLATPTCRYDPTSTAPHIKYDTSYTCASTTTVSTTSTVTTTKPTTTTTTPTTTTTTPTTTTTESTTTETTSTTTPTTTTTAPTTTTTASTTTFKTTTITTTTQTTTPTTTATTTKPTTTTPTTTRTPVDCSAKCDPFWVSYSDGCYAKIQGTATFETAKLGCQSVGGEMAVITDAAMNEAIRLAFSTNIDSSVSNQAWIGTSSYSNWAPGKPDKAQGVAYSSYCNVIALSVVNKGKDFGFSRGVWTDYPCSLKQEFAICKRI,not soluble
5,NKVNDESVEYFGQRNEFRQASDFMEERISGMTNISIAIKTNESQGIAAPDFLNTIGEFSSWLRDQPETDHVATLADVYKRLNKNMHGDDEAYYLLPQERELAAQYLLLYEMSLPYGLDLNNQINVDKSSIKMVLTVANLGSVELVDLENRIYQWFAEHAPQYQVVASSPSLMFAHIGETN,not soluble
6,VVKQDLSDNQYIQKKPNEITSNELLLPLPNDKLLGDPKAPILMIEYASLTCYHCSLFHRNVFPKIKEKYIDTGKMLYIFRHFPLDYRGLKAAMLSHCYEKQEDYFNFNKAVFNSIDSWNYYNLSDLTLLQRIAALSNLKQDAFNQCINDKKIMDKIVNDKSLAINKLGITAVPIFFIKLNDDKSYIEHNKVKHGGYKELKYFTNVIDKLYGKAIVKLEHHHHHHHH,soluble
7,MKAPAFTEAKLQDPIPAKIYDKNGELVKTLDNGQRHEHVNLKDVPKSMKDAVLATEDNRFYEHGALDYKRLFGAIGKNLTGGFGSEGASTLTQQVVKDAFLSQHKSIGRKAQEAYLSYRLEQEYSKDDIFQVYLNKIYYSDGVTGIKAAAKYYFNKDLKDLNLAEEAYLAGLPQVPNNYNIYDHPKAAEDRKNTVLYLMHYHKRITDKQWEDAKKIDLKANLVNRTPEERQNIDTNQDSEYNSYVNFVKSELMNNKAFKDENLGNVLQSGIKIYTNMDKDVQKTLQNDVDNGSFYKNKDQQVGATILDSKTGGLVAISGGRDFKDVVNRNQATDPHPTGSSLKPFLAYGPAIENMKWATNHAIQDESSYQVDGSTFRNYDTKSHGTVSIYDALRQSFNIPALKAWQSVKQNAGNDAPKKFAAKLGLNYEGDIGPSEVLGGSASEFSPTQLASAFAAIANGGTYNNAHSIQKVVTRDGETIEYDHTSHKAMSDYTAYMLAEMLKGTFKPYGSAYGHGVSGVNMGAKTGTGTYGAETYSQYNLPDNAAKDVWINGFTPQYTMSVWMGFSKVKQYGENSFVGHSQQEYPQFLYENVMSKISSRDGEDFKRPSSVSGSIPSINVSGSQDNNTTNRSTHGGSDTSANSSGTAQSNNNTRSQQSRNSGGLTGIFN,soluble
8,MTKQPPIAKADLQKTQGNRAPAAVKNSDVISFINQPSMKEQLAAALPRHMTAERMIRIATTEIRKVPALGNCDTMSFVSAIVQCSQLGLEPGSALGHAYLLPFGNKNEKSGKKNVQLIIGYRGMIDLARRSGQIASLSARVVREGDEFSFEFGLDEKLIHRPGENEDAPVTHVYAVARLKDGGTQFEVMTRKQIELVRSLSKAGNNGPWVTHWEEMAKKTAIRRLFKYLPVSIEIQRAVSMDEKEPLTIDPADSSVLTGEYSVIDNSEE,soluble
9,MGSDKIHHHHHHMNQNRIPLYEALIEFKERRPLSFHVPGHKNGLNFPQGAVEEFKDILSIDVTELSGLDDLHSPFECIDEAQQLLADVYEVEKSYFLINGSTVGNLAMILSCCREHDIVLVQRNCHKSIINGLKLAGANPIFLDSWIDEAYNVPVGIHDEIIKEAIEKYPNAKALILTHPNYYGMGMDLEASIAYAHAHKIPVLVDEAHGAHFCLGGAFPKSALAYGADIVVHSAHKTLPAMTMGSYLHINSRLVKEERVSTYLSMLQSSSPSYPIMASLDIARFTIARIKEKGHDEIVEFLREFKEELSSIPQIAILQYPLQDELKVTVQTRCQLSGYELQSVLEKVGIYTEMADPYNVLFILPLQVNKTYMKAVEMIRAALQSYEVKDKTESIRYTYKGEISPLPYTYKQLEGYETKVVSVEEAVGMIAAEMVIPYPPGIPLIMYGERITSEHKEQIMHLERAGARFQGSTKYMKVYDIESRF,not soluble
10,MMSIFRKLMPREDRFFDMFSKHSETVIKAAAALDQLLSGIDVEKNCDLIVALENQADDITREVLLAVRRSFITPFDRGDIKDLIQSMDDAIDMMHKTVKTIRLFEQSEFDPLMKEMGHEIVRAAGLIAEAIPLLNKVGANAQRLSAIAEEVTRVEGRSDDLHDQGLKDLFRRHGANGNAMAYMIGSEIYGELEKVVDRFEDVANEISGIVIENVLEHHHHHH,soluble
11,METSKEFEFRPAKETSRSKSPGGIVGRLSNFARNKARHSLSEKGSNSVGGSGGAGFDKPRKDLLKEFHKCKEAQDQRLDLSSIEITSIPSPIKELTQLTELFLYKNKLTCLPTEIGQLVNLKKLGLSENALTSLPDSLASLESLETLDLRHNKLTEVPSVIYKIGSLETLWLRYNRIVAVDEQIGNLSKLKMLDVRENKIRELPSAIGKLTSLVVCLVSYNHLTRVPEEIGDCHSLTQLDLQHNDLSELPYSIGKLVNLVRIGIRYNKIRCIPSELESCQQLEEFIVESNHLQLLPPNLLTMLPKIHTVNLSRNELTAFPAGGPQQFVSTVTINMEHNQISKIPIGIFSKATRLTKLNLKENELVSLPLDMGSWTSITELNLSTNQLKVLPEDIEKLVNLEILVLSNNQLKKLPNQIGNLNKLRELDLEENELETVPTEIGFLQHLTKLWVQSNKILTLPRSIGNLCSLQDLRLGENNLTAIPEEIGHLDSLKSLYLNDNSSLHNLPFELALCQSLEIMSIENSPLSQIPPEITAGGPSLVIQYLKMQGPYRGVVMNSQ,not soluble
12,MTNLMSALSKLSQALDSKNIGEVLLALQNFDEEFSAEKCEDVFVRCLQEIISWDLTVSLEISETVVRQMMNRLENQAVLEEMCNYIIKQQSSVTVEIAVEIMIEHGWILRTDDCREVWKQIESAKNTEKIEILARRMTANCRILRLSGAPKRFLEKLLKDVIISLNANKVNIPMKFLNELAIVSPFHPILVIEDFKKDSEYFYIPHVVSEETRFHLEVKEFTNFFQIESTYHKEQACQMLQVFNQIYKRMELIPQLEAPEIDKIVEFWLAALRIFNGYGIGMNDITESAKLLEKTASRYSLKSRPLFLKHFLKKISEKKDTNIGLEPQVVATIITTYQRNAFGLRSPEFYEELGEFWALCLKIKYDDVYFATVYFSAVFALAQAQAVFKIKKELCREVYHKILQPMHEQLVDFVKLKQVESNKATSEEEVMRLEHQNIGASYFSILTCTYKNAEDRILEFMKEN,not soluble
13,GMWQFPLFETILIEQGQAKNISYHQQRYEKSLLKFYPKMKLQPFDLAKIIAKHTALFTHREGLIRCRIDYNHHDYVLQCFPYQQKVYRTFKPVFCDHIDYSLKFSDRTLLNNLLKQKEECDEIMIIRQGKVTDCSIGNLIFRQNNQWITPDKPLLEGTQRAKLLEQKKIIAREIFFEDLAQYEEIRLINAMNGL,soluble
14,MAHHHHHHMVHKKQAWAKRVKKERFKKKFLTRMQATRLLQMESVQFRRLCILKGIYPRALNRSKQKQSGNEKQYYLAREIKWLVRDQIAEKMMAYRAWEKKVKRAEAMGRSEDLKVLQTSRVKPRHSLVATIKERYPYFIDAIRDVDDAMSMIHLYAFLSPEIKSDTTIEIHHSLTSGLSERAKEVCERWDRYVARARVLTKGFISIKGYYYEAIVKGERVRWLCPHEYAHRFPPGIQQYVMLSFLEFYLEMMKFVLFKLESDLARDEADRLAAEDEEGVTRANAEDFANGAALAVLDVGANQAQAKAVKEAESKRSLMEEELHKVRELFRGLTFFISREVPAKHFALVINACGGRVATDYVPSNITHVVVDRPALPPGMKKHDQLEYVQPQYIFDCLNARLVLPVTGYRIGEELPPHVSPFSVSITNSAEDNAAVVQVKKDHPRIVGYVPARVHEIRKLINPSYSAVDPEGKVAHLEDEYSDEESHVAVPEMDMEDDVSLSGDELAEARRKPAWQEEEVTEEVQRPKLSAFKVKKQREMNLMNAPTNEVVARRRQALRKAQEKSRQTETSEARLQRKMSEVKRQEAATRKMQLQVARKKAARFYKMVSGVVQGTAKKVATLEAKAKHIAEGKLRKTEDGKGLVNKRLEARRQRAEAKGKKLKERKAGNPYKKLPKWVQ,not soluble
15,MNLSNHFLIAMPDMEDAFFSQSVVYICKHDEDGALGIAINKPSPITMDMIFSATGKNIPMRMQHDSVMMGGPVQVERGYVVHTPIGNWQSSIGVSDNIALTSSRDVIENISREGAVDKALISIGYSSWSKGQLERELADNAWLTVPADEHILFDIPYEHRYAAAFAKLGIDPLALFSGAGHA,not soluble
16,MGSDKIHHHHHHMNIQSIEPTPSPNTMKLTLDQTLPQGKSNNYTLKNKEEAPPFIQKLFEIEGVKGVYHVADFLAIERNAKVDWKVILPKVRAVFGDETGDGPQKEKPEVQEGYGEVQVFLQLFKGIPMQIKLSNGEEEVREGLPERFANAAFAAQQPDDNVVLERKWVEQGVRYGELADVAKDVAEEVSAAFSQERLDRLVNIAKGLVDKTQEQTEERFRKVTLADMEQDDWRDRYAALDKMDPTEEDLPVLEKALQDEKASIRRLATVYLGMIEKPVVLPLLEKALKDPSVTVRRTAGDCMSDIGDPAAIPAMIEALKDKNKLVRWRAAMFLYEVGDETAIDALRLAEDDPEFEVAMQVKMALERIVGGEEAKGSVWKQMTEEMAKGKNE,not soluble
17,KMFFKVIDTLSDNYEKEMLLLEAEAKEQYYQELEKSSREVRKIKHDLKNMLLAICGKAKKQNEISEEIYKIIKELDESDKKIYTSNVVINTIINHKISQAKKLEIKTDVNIKVSKAIHIDYKDAGILLGNILDNAIEACEKIKKKERWIKIDMLHNKNTLFIEVCNSKGKELTNISKSSKSDAHNHGIGISSIKAITKKYDGYVEFVDKGEEFEVVVNLYGMSF,not soluble
